Experimental data taken from patent US20230220042A1 (SHANGHAI JIAO TONG UNIVERSITY SCHOOL OF MEDICINE, published 2023).
Where a chain is given by its changes, count along the chain named. Names and notes keep the numbering of the source.

T1: Biotin-FcγRIIB (human FcγRIIB, Sino Biological) (human, UniProt P31994 43-217, limits assumed, biotin-labeled)
T1 construct: Used at 1 µg/ml with Streptavidin-APC for flow cytometry and sorting; also called CD32b
T1 sequence (looked up): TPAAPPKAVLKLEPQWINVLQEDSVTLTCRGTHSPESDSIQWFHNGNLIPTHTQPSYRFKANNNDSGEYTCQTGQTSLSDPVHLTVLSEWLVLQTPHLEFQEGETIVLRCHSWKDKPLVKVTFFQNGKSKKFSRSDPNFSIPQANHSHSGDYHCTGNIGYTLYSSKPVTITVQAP

B1: human IgG2 anti-mouse CD40 surface displayed antibody, H268D (antibody, name in EU numbering)
light chain (with the P2A rest): DTVLTQSPALAVSPGERVTISCRASDSVSTLMHWYQQKPGQQPKLLIYLASHLESGVPARFSGSGSGTDFTLTIDPVEADDTATYYCQQSWNDPWTFGGGTKLELKRTVAAPSVFIFPPSDEQLKSGTASVVCLLNNFYPREAKVQWKVDNALQSGNSQESVTEQDSKDSTYSLSSTLTLSKADYEKHKVYACEVTHQGLSSPVTKSFNRGECGSGATNFSLLKQAGDVEENPG
heavy chain: EVQLVESDGGLVQPGRSLKLPCAASGFTFSDYYMAWVRQAPTKGLEWVASISYDGSSTYYRDSVKGRFTISRDNAKSTLYLQMDSLRSEDTATYYCGRHSSYFDYWGQGVMVTVSSASTKGPSVFPLAPCSRSTSESTAALGCLVKDYFPEPVTVSWNSGALTSGVHTFPAVLQSSGLYSLSSVVTVPSSNFGTQTYTCNVDHKPSNTKVDKTVERKCCVECPPCPAPPVAGPSVFLFPPKPKDTLMISRTPEVTCVVVDVSDEDPEVQFNWYVDGVEVHNAKTKPREEQFNSTFRVVSVLTVVHQDWLNGKEYKCKVSNKGLPAPIEKTISKTKGQPREPQVYTLPPSREEMTKNQVSLTCLVKGFYPSDIAVEWESNGQPENNYKTTPPMLDSDGSFFLYSKLTVDKSRWQQGNVFSCSVMHEALHNHYTQKSLSLSPGKLEPPPSTVSNMATVAVLVVLGAAIVTGAVVAFVMKMRRRNTGGKGGDYALAPGSQTSDLSLPDCKVMVHDPHSLA
notes: m1 with this Fc mutation (Eu numbering); copies: 2 + 2
B2: human IgG2 anti-mouse CD40 surface displayed antibody, S267M/P271G (antibody, name in EU numbering)
light chain (with the P2A rest): B1 light chain (with the P2A rest)
heavy chain: B1 heavy chain with S262M, D263H, P266G
notes: m1 with these Fc mutations (Eu numbering); copies: 2 + 2
B3: human IgG2 anti-mouse CD40 surface displayed antibody, S267A/P271G (antibody, name in EU numbering)
light chain (with the P2A rest): B1 light chain (with the P2A rest)
heavy chain: B1 heavy chain with S262A, D263H, P266G
notes: as for B2
B4: human IgG2 anti-mouse CD40 surface displayed antibody, S267E/P271V (antibody, name in EU numbering)
light chain (with the P2A rest): B1 light chain (with the P2A rest)
heavy chain: B1 heavy chain with S262E, D263H, P266V
notes: as for B2
B5: human IgG2 anti-mouse CD40 surface displayed antibody, H268E (antibody, name in EU numbering)
light chain (with the P2A rest): B1 light chain (with the P2A rest)
heavy chain: B1 heavy chain with D263E
notes: as for B1
B6: human IgG2 anti-mouse CD40 surface displayed antibody, P271C (antibody, name in EU numbering)
light chain (with the P2A rest): B1 light chain (with the P2A rest)
heavy chain: B1 heavy chain with D263H, P266C
notes: as for B1
B7: human IgG2 anti-mouse CD40 surface displayed antibody, S267A/P271C (antibody, name in EU numbering)
light chain (with the P2A rest): B1 light chain (with the P2A rest)
heavy chain: B1 heavy chain with S262A, D263H, P266C
notes: as for B2
B8: human IgG2 anti-mouse CD40 surface displayed antibody, S267E/P271C (antibody, name in EU numbering)
light chain (with the P2A rest): B1 light chain (with the P2A rest)
heavy chain: B1 heavy chain with S262E, D263H, P266C
notes: as for B2
B9: human IgG2 anti-mouse CD40 surface displayed antibody, S267D (antibody, name in EU numbering)
light chain (with the P2A rest): B1 light chain (with the P2A rest)
heavy chain: B1 heavy chain with S262D, D263H
notes: as for B1
B10: human IgG2 anti-mouse CD40 surface displayed antibody, S267E/D270H (antibody, name in EU numbering)
light chain (with the P2A rest): B1 light chain (with the P2A rest)
heavy chain: B1 heavy chain with S262E, D263H, D265H
notes: as for B2
B11: human IgG2 anti-mouse CD40 surface displayed antibody, S267G (antibody, name in EU numbering)
light chain (with the P2A rest): B1 light chain (with the P2A rest)
heavy chain: B1 heavy chain with S262G, D263H
notes: as for B1
B12: human IgG2 anti-mouse CD40 surface displayed antibody, H268K (antibody, name in EU numbering)
light chain (with the P2A rest): B1 light chain (with the P2A rest)
heavy chain: B1 heavy chain with D263K
notes: as for B1
B13: human IgG2 anti-mouse CD40 surface displayed antibody, S267E/P271W (antibody, name in EU numbering)
light chain (with the P2A rest): B1 light chain (with the P2A rest)
heavy chain: B1 heavy chain with S262E, D263H, P266W
notes: as for B2
B14: human IgG2 anti-mouse CD40 surface displayed antibody, S267A (antibody, name in EU numbering)
light chain (with the P2A rest): B1 light chain (with the P2A rest)
heavy chain: B1 heavy chain with S262A, D263H
notes: as for B1
B15: human IgG2 anti-mouse CD40 surface displayed antibody, S267E/P271Y (antibody, name in EU numbering)
light chain (with the P2A rest): B1 light chain (with the P2A rest)
heavy chain: B1 heavy chain with S262E, D263H, P266Y
notes: as for B2
B16: human IgG2 anti-mouse CD40 surface displayed antibody, S267M/P271C (antibody, name in EU numbering)
light chain (with the P2A rest): B1 light chain (with the P2A rest)
heavy chain: B1 heavy chain with S262M, D263H, P266C
notes: as for B2
B17: human IgG2 anti-mouse CD40 surface displayed antibody, S267M (antibody, name in EU numbering)
light chain (with the P2A rest): B1 light chain (with the P2A rest)
heavy chain: B1 heavy chain with S262M, D263H
notes: as for B1
B18: human IgG2 anti-mouse CD40 surface displayed antibody, S267E/S298R (antibody, name in EU numbering)
light chain (with the P2A rest): B1 light chain (with the P2A rest)
heavy chain: B1 heavy chain with S262E, D263H, S293R
notes: as for B2
B19: human IgG2 anti-mouse CD40 surface displayed antibody, S267R (antibody, name in EU numbering)
light chain (with the P2A rest): B1 light chain (with the P2A rest)
heavy chain: B1 heavy chain with S262R, D263H
notes: as for B1
B20: human IgG2 anti-mouse CD40 surface displayed antibody, P271G/T299S (antibody, name in EU numbering)
light chain (with the P2A rest): B1 light chain (with the P2A rest)
heavy chain: B1 heavy chain with D263H, P266G, T294S
notes: as for B2
B21: human IgG2 anti-mouse CD40 surface displayed antibody, P271G/T299M (antibody, name in EU numbering)
light chain (with the P2A rest): B1 light chain (with the P2A rest)
heavy chain: B1 heavy chain with D263H, P266G, T294M
notes: as for B2
B22: human IgG2 anti-mouse CD40 surface displayed antibody, S267E (antibody, name in EU numbering)
light chain (with the P2A rest): B1 light chain (with the P2A rest)
heavy chain: B1 heavy chain with S262E, D263H
notes: as for B1
B23: human IgG2 anti-mouse CD40 surface displayed antibody, P271G/S298R (antibody, name in EU numbering)
light chain (with the P2A rest): B1 light chain (with the P2A rest)
heavy chain: B1 heavy chain with D263H, P266G, S293R
notes: as for B2
B24: human IgG2 anti-mouse CD40 surface displayed antibody, S267V/S298L (antibody, name in EU numbering)
light chain (with the P2A rest): B1 light chain (with the P2A rest)
heavy chain: B1 heavy chain with S262V, D263H, S293L
notes: as for B2
B25: human IgG2 anti-mouse CD40 surface displayed antibody, P271G/T299W (antibody, name in EU numbering)
light chain (with the P2A rest): B1 light chain (with the P2A rest)
heavy chain: B1 heavy chain with D263H, P266G, T294W
notes: as for B2
B26: human IgG2 anti-mouse CD40 surface displayed antibody, S298L (antibody, name in EU numbering)
light chain (with the P2A rest): B1 light chain (with the P2A rest)
heavy chain: B1 heavy chain with D263H, S293L
notes: as for B1
B27: human IgG2 anti-mouse CD40 surface displayed antibody, P271G/T299A (antibody, name in EU numbering)
light chain (with the P2A rest): B1 light chain (with the P2A rest)
heavy chain: B1 heavy chain with D263H, P266G, T294A
notes: as for B2
B28: human IgG2 anti-mouse CD40 surface displayed antibody, P271G/S298L (antibody, name in EU numbering)
light chain (with the P2A rest): B1 light chain (with the P2A rest)
heavy chain: B1 heavy chain with D263H, P266G, S293L
notes: as for B2
B29: human IgG2 anti-mouse CD40 surface displayed antibody, P271G/S298N (antibody, name in EU numbering)
light chain (with the P2A rest): B1 light chain (with the P2A rest)
heavy chain: B1 heavy chain with D263H, P266G, S293N
notes: as for B2
B30: human IgG2 anti-mouse CD40 surface displayed antibody, P271Q (antibody, name in EU numbering)
light chain (with the P2A rest): B1 light chain (with the P2A rest)
heavy chain: B1 heavy chain with D263H, P266Q
notes: as for B1

Each binder was assayed against T1, Biotin-FcγRIIB (human FcγRIIB, Sino …) (assay: NGS after FACS sort of 3T3-displayed Library2 for biotin-FcγRIIB binding).

Row | Binder | Enrichment factor (percentage after sorting/percentage before sorting) | Increased factor (enrichment factor/wild-type enrichment factor)
1 | B1 | 1.54 | 2.68
2 | B2 | 4.31 | 7.52
3 | B3 | 5.27 | 9.19
4 | B4 | 22.1 | 38.4
5 | B5 | 1.69 | 2.94
6 | B6 | 17.1 | 29.9
7 | B7 | 37.4 | 65.1
8 | B8 | 1000 | 1740
9 | B9 | 2.11 | 3.67
10 | B10 | 42.7 | 74.3
11 | B11 | 1.79 | 3.5
12 | B12 | 1.32 | 2.31
13 | B13 | 24 | 41.8
14 | B14 | 3.17 | 5.52
15 | B15 | 19.2 | 33.4
16 | B16 | 32.1 | 56
17 | B17 | 1.48 | 2.57

These binders were tested against T1, Biotin-FcγRIIB (human FcγRIIB, Sino …) (assay: NGS after FACS sort of 3T3-displayed LibraryMix for biotin-FcγRIIB binding).

Row | Binder | Enrichment factor (percentage after sorting/percentage before sorting) | Increased factor (enrichment factor/wild-type enrichment factor)
18 | B18 | 32.8 | 43.8
19 | B19 | 1.52 | 2.03
20 | B20 | 12 | 16
21 | B21 | 4.74 | 6.33
22 | B22 | 217 | 290
23 | B23 | 16 | 21.4
24 | B24 | 2.09 | 2.8
25 | B25 | 9.23 | 12.3
26 | B26 | 2.18 | 2.91
27 | B27 | 6.28 | 8.39
28 | B28 | 188 | 252
29 | B29 | 18 | 24
30 | B30 | 1.65 | 2.21
